Data published in patent US20140087995A1 (published 2014).
Read-outs that look alike come from different tables or passages of the source. One block for each binder: values may come before it. Numbered stars: 1 amine (or outer) side, 2 acyl side, 3 side chain; on linkers, the order of the positions; unused ones are H or OH. Bridge positions count the residues as written; N and C are the ends. Side chains are listed from the residue outwards. Ends that are not written are not given here. * marks the point of attachment. C20 diacid = O=C(O)CCCCCCCCCCCCCCCCCCC(=O)*; γGlu = O=C(O)[C@H](CCC(=O)[*:2])N[*:1]; AEEA = NCCOCCOCC(=O)O

Experiments:
[1] = target: T1, human amylin receptor (amylin 3(a) receptor: human calcitonin receptor plus RAMP-3) (human, UniProt P30988 25-474; O60896 24-148); assay: SPA competition, displacement of 125I-rat amylin from membranes of BHK cells with human calcitonin receptor + RAMP-3 (Assay V)
T1 construct: whole, on cells; functional assay used the whole cells; also called hAmylin-R; hAmylinR
T1 sequence (looked up) 1: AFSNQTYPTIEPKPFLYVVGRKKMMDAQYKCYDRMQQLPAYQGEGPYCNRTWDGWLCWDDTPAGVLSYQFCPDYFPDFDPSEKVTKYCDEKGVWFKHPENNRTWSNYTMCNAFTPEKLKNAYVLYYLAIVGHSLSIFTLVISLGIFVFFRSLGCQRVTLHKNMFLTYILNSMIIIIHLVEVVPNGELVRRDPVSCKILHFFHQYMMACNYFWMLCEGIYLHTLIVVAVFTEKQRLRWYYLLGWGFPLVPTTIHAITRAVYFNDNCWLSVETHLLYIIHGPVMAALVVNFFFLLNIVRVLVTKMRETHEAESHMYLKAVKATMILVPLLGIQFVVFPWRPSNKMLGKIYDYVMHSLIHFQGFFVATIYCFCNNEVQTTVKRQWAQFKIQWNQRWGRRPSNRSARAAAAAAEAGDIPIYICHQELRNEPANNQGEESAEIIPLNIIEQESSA
T1 sequence (looked up) 2: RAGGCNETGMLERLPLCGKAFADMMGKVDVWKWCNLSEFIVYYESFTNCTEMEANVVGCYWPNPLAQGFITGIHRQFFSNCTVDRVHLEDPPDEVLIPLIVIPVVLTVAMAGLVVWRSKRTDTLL
Procedure: (§1) The binding assay was performed using scintillation proximity assay (SPA) beads (RPNQ0001) from PerkinElmer and cell membranes from the Amylin 3(a)/CRE-luc cells (as described in Assay (II)) were used. Membranes were prepared in the following way; the cells were rinsed with PBS and incubated with Versene for approximately 5 min before harvesting. The cells were flushed with PBS and the cell-suspension was centrifuged for 5 min at 1000 rpm. Cells were homogenized (ultrathurrax) in a buffer containing 20 mM Na-HEPES and 10 mM EDTA (pH 7.4) and centrifuged at 20.000 rpm for 15 min. The resulting pellet was resuspended, homogenized and centrifuged (20.000 rpm, 15 min) in a buffer containing 20 mM Na-HEPES and 0.1 mM EDTA (pH 7.4, buffer 2). The resulting pellet was resuspended in buffer 2 and protein concentration was measured (BCA protein Assay, Pierce). The homogenate was kept cold during the whole procedure. The membranes were kept at −80° C. until use. The assay was performed in a 384 well Optiplate (PerkinElmer) in a total volume of 40 ul. Membranes were mixed with SPA beads. Final concentration of membranes 35 ng/μL final and SPA beads was 0.05 mg/well. Test-compounds were dissolved in DMSO and further diluted in assay buffer (50 mM Hepes, pH 7.4, 1 mM CaCl2, 5 mM MgCl₂, 0.1% OA and 0.02% Tween20). […] The final mixture was incubated with shaking at 400 rpm for 120 min at 25° C. prior to centrifugation (1500 rpm, 10 min). Samples were analyzed on TopCounter™ (Packard). The IC₅₀ was calculated using (one site binding competition analysis) GraphPad Prism5 as a measure of receptor affinity.

[2] = target: T1, human amylin receptor (amylin 3(a) …); assay: cell-based or functional assay
[3] = target: T2, human calcitonin receptor (human, UniProt P30988 25-474); assay: cell-based or functional assay
T2 sequence (looked up): T1 sequence (looked up) 1

[4] = target: T1, human amylin receptor (amylin 3(a) …); assay: cell-based or functional assay; remark: listed apart in the source
[5] = target: T2, human calcitonin receptor; assay: cell-based or functional assay; remark: listed apart in the source
[6] = target: T1, human amylin receptor (amylin 3(a) …); assay: SPA competition, displacement of 125I-rat amylin from membranes of BHK cells with human calcitonin receptor + RAMP-3 (Assay V); remark: listed apart in the source
Procedure: as §1

IC50 [1]: 552 pM | Ratio hCT/hAmylin funct. [2]: 17 | hAmylin-R funct. EC50 (pM) [2]: 594 pM | hCTR funct. EC50 (pM) [3]: 10100 pM | Ratio hCT/hAmylin funct. [4]: 17 | hAmylin-R funct. EC50 (pM) [4]: 594 pM | hCTR funct. EC50 (pM) [5]: 10100 pM | IC50 [6]: 552 pM
B1: N^ε-[2-[2-[2-[[(4S)-4-carboxy-4-(19-carboxynonadecanoylamino)butanoyl]amino]ethoxy]ethoxy]acetyl]Lys[Arg1,Arg17,Pro21,Pro27,His35]-h-amylin (peptide)
peptide: K([AEEA-γGlu-C20 diacid])RCNTATCATQRLANFLRHSSPNFGAIPSSTNVGSHTY-NH2
modifications: disulfide 3-8; N-terminus assumed
SMILES: CC[C@H](C)[C@H](NC(=O)[C@H](C)NC(=O)CNC(=O)[C@H](Cc1ccccc1)NC(=O)[C@H](CC(N)=O)NC(=O)[C@@H]1CCCN1C(=O)[C@H](CO)NC(=O)[C@H](CO)NC(=O)[C@H](Cc1c[nH]cn1)NC(=O)[C@H](CCCNC(=N)N)NC(=O)[C@H](CC(C)C)NC(=O)[C@H](Cc1ccccc1)NC(=O)[C@H](CC(N)=O)NC(=O)[C@H](C)NC(=O)[C@H](CC(C)C)NC(=O)[C@H](CCCNC(=N)N)NC(=O)[C@H](CCC(N)=O)NC(=O)[C@@H](NC(=O)[C@H](C)NC(=O)[C@@H]1CSSC[C@H](NC(=O)[C@H](CCCNC(=N)N)NC(=O)[C@@H](N)CCCCNC(=O)COCCOCCNC(=O)CC[C@H](NC(=O)CCCCCCCCCCCCCCCCCCC(=O)O)C(=O)O)C(=O)N[C@@H](CC(N)=O)C(=O)N[C@@H]([C@@H](C)O)C(=O)N[C@@H](C)C(=O)N[C@@H]([C@@H](C)O)C(=O)N1)[C@@H](C)O)C(=O)N1CCC[C@H]1C(=O)N[C@@H](CO)C(=O)N[C@@H](CO)C(=O)N[C@H](C(=O)N[C@@H](CC(N)=O)C(=O)N[C@H](C(=O)NCC(=O)N[C@@H](CO)C(=O)N[C@@H](Cc1c[nH]cn1)C(=O)N[C@H](C(=O)N[C@@H](Cc1ccc(O)cc1)C(N)=O)[C@@H](C)O)C(C)C)[C@@H](C)O
notes: N-terminal extension by Lys at position -1; also called compound 45

IC50 [1]: 275 pM | Ratio hCT/hAmylin funct. [2]: 24 | hAmylin-R funct. EC50 (pM) [2]: 198 pM | hCTR funct. EC50 (pM) [3]: 4750 pM | Ratio hCT/hAmylin funct. [4]: 24 | hAmylin-R funct. EC50 (pM) [4]: 198 pM | hCTR funct. EC50 (pM) [5]: 4750 pM | IC50 [6]: 275 pM
B2: N^ε-[(4S)-4-carboxy-4-(19-carboxynonadecanoylamino)butanoyl]Lys[Arg1,Arg17,Pro21,Pro27,His35]-h-amylin (peptide)
peptide: K([γGlu-C20 diacid])RCNTATCATQRLANFLRHSSPNFGAIPSSTNVGSHTY-NH2
modifications: disulfide 3-8; N-terminus assumed
SMILES: CC[C@H](C)[C@H](NC(=O)[C@H](C)NC(=O)CNC(=O)[C@H](Cc1ccccc1)NC(=O)[C@H](CC(N)=O)NC(=O)[C@@H]1CCCN1C(=O)[C@H](CO)NC(=O)[C@H](CO)NC(=O)[C@H](Cc1c[nH]cn1)NC(=O)[C@H](CCCNC(=N)N)NC(=O)[C@H](CC(C)C)NC(=O)[C@H](Cc1ccccc1)NC(=O)[C@H](CC(N)=O)NC(=O)[C@H](C)NC(=O)[C@H](CC(C)C)NC(=O)[C@H](CCCNC(=N)N)NC(=O)[C@H](CCC(N)=O)NC(=O)[C@@H](NC(=O)[C@H](C)NC(=O)[C@@H]1CSSC[C@H](NC(=O)[C@H](CCCNC(=N)N)NC(=O)[C@@H](N)CCCCNC(=O)CC[C@H](NC(=O)CCCCCCCCCCCCCCCCCCC(=O)O)C(=O)O)C(=O)N[C@@H](CC(N)=O)C(=O)N[C@@H]([C@@H](C)O)C(=O)N[C@@H](C)C(=O)N[C@@H]([C@@H](C)O)C(=O)N1)[C@@H](C)O)C(=O)N1CCC[C@H]1C(=O)N[C@@H](CO)C(=O)N[C@@H](CO)C(=O)N[C@H](C(=O)N[C@@H](CC(N)=O)C(=O)N[C@H](C(=O)NCC(=O)N[C@@H](CO)C(=O)N[C@@H](Cc1c[nH]cn1)C(=O)N[C@H](C(=O)N[C@@H](Cc1ccc(O)cc1)C(N)=O)[C@@H](C)O)C(C)C)[C@@H](C)O
notes: N-terminal extension by Lys at position -1; also called compound 44

IC50 [1]: 992 pM | hAmylin-R funct. EC50 (pM) [2]: 425 pM | hCTR funct. EC50 (pM) [3]: 5580 pM | hAmylin-R funct. EC50 (pM) [4]: 425 pM | hCTR funct. EC50 (pM) [5]: 5580 pM | IC50 [6]: 992 pM
B3: N^ε1-[(4S)-4-carboxy-4-(19-carboxynonadecanoylamino)butanoyl]-[Glu14,Arg17,Pro21,Pro27,His35]-h-amylin (peptide)
peptide: K([γGlu-C20 diacid])CNTATCATQRLAEFLRHSSPNFGAIPSSTNVGSHTY-NH2
modifications: disulfide 2-7; N-terminus assumed
SMILES: CC[C@H](C)[C@H](NC(=O)[C@H](C)NC(=O)CNC(=O)[C@H](Cc1ccccc1)NC(=O)[C@H](CC(N)=O)NC(=O)[C@@H]1CCCN1C(=O)[C@H](CO)NC(=O)[C@H](CO)NC(=O)[C@H](Cc1c[nH]cn1)NC(=O)[C@H](CCCNC(=N)N)NC(=O)[C@H](CC(C)C)NC(=O)[C@H](Cc1ccccc1)NC(=O)[C@H](CCC(=O)O)NC(=O)[C@H](C)NC(=O)[C@H](CC(C)C)NC(=O)[C@H](CCCNC(=N)N)NC(=O)[C@H](CCC(N)=O)NC(=O)[C@@H](NC(=O)[C@H](C)NC(=O)[C@@H]1CSSC[C@H](NC(=O)[C@@H](N)CCCCNC(=O)CC[C@H](NC(=O)CCCCCCCCCCCCCCCCCCC(=O)O)C(=O)O)C(=O)N[C@@H](CC(N)=O)C(=O)N[C@@H]([C@@H](C)O)C(=O)N[C@@H](C)C(=O)N[C@@H]([C@@H](C)O)C(=O)N1)[C@@H](C)O)C(=O)N1CCC[C@H]1C(=O)N[C@@H](CO)C(=O)N[C@@H](CO)C(=O)N[C@H](C(=O)N[C@@H](CC(N)=O)C(=O)N[C@H](C(=O)NCC(=O)N[C@@H](CO)C(=O)N[C@@H](Cc1c[nH]cn1)C(=O)N[C@H](C(=O)N[C@@H](Cc1ccc(O)cc1)C(N)=O)[C@@H](C)O)C(C)C)[C@@H](C)O
